Experimental data reported in publication PMC8551270 (Scientific Reports, 2021).
Entries after “also recorded” stand apart in the source; their conditions may differ.

Assays:
[1] = molecular target: PYY3-36 analogue 60: [Lys4(TAMRA), Lys30(C20 diacid-gammaGlu-2xAdo)]PYY3-36 L30K (acylated) (UniProt P10082); test: fluorescence polarization (TAMRA-labelled peptide; excitation 535/25 nm, emission 595/35 nm; Tecan Spark, 384-well plate); settings: room temperature, 140 mM NaCl at pH 7.4, 150 mM NaCl at pH 6.0, 10 mM sodium phosphate at pH 7.4, 20 mM MES at pH 6.0
PYY3-36 analogue 60: [Lys4(TAMRA), Lys30(C20 diacid-gammaGlu-2xAdo)]PYY3-36 L30K (acylated), sequence (P10082 whole entry, stated change not applied): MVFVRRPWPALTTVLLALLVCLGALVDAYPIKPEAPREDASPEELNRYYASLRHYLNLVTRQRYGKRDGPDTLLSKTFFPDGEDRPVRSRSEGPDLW

[2] = molecular target: PYY3-36 analogue 58: [Lys4(TAMRA), Lys30(C14 diacid-gammaGlu-2xAdo)]PYY3-36 L30K (acylated) (UniProt P10082); test: as above; settings: room temperature, 140 mM NaCl at pH 7.4, 150 mM NaCl at pH 6.0, 10 mM sodium phosphate at pH 7.4, 20 mM MES at pH 6.0
PYY3-36 analogue 58: [Lys4(TAMRA), Lys30(C14 diacid-gammaGlu-2xAdo)]PYY3-36 L30K (acylated), sequence (P10082 whole entry, stated change not applied): as above

[3] = molecular target: PYY3-36 analogue 56: [Lys4(TAMRA), Lys30(C18 diacid-gammaGlu-2xAdo)]PYY3-36 L30K (acylated) (UniProt P10082); test: as above; settings: room temperature, 140 mM NaCl at pH 7.4, 150 mM NaCl at pH 6.0, 10 mM sodium phosphate at pH 7.4, 20 mM MES at pH 6.0
PYY3-36 analogue 56: [Lys4(TAMRA), Lys30(C18 diacid-gammaGlu-2xAdo)]PYY3-36 L30K (acylated), sequence (P10082 whole entry, stated change not applied): as above

[4] = molecular target: PYY3-36 analogue 59: [Lys4(TAMRA), Lys30(C16 diacid-gammaGlu-2xAdo)]PYY3-36 L30K (acylated) (UniProt P10082); test: as above; settings: room temperature, 140 mM NaCl at pH 7.4, 150 mM NaCl at pH 6.0, 10 mM sodium phosphate at pH 7.4, 20 mM MES at pH 6.0
PYY3-36 analogue 59: [Lys4(TAMRA), Lys30(C16 diacid-gammaGlu-2xAdo)]PYY3-36 L30K (acylated), sequence (P10082 whole entry, stated change not applied): as above

[5] = plasma samples from minipigs dosed i.v., pooled from two minipigs for each time point; settings: Göttingen Minipigs, up to 288 h post dosing
[6] = cited from earlier work

| Substance | Kd ([1]; pH 6.0) | Kd ([1]; pH 7.4) | Kd ([2]; pH 6.0) | Kd ([2]; pH 7.4) | Kd ([3]; pH 6.0) | Kd ([3]; pH 7.4) | Kd ([4]; pH 6.0) | Kd ([4]; pH 7.4) | fragment found [5] | other results |
| --- | --- | --- | --- | --- | --- | --- | --- | --- | --- | --- |
| porcine serum albumin (PSA), charcoal-defatted | 0.46 µM | 0.27 µM | 34 µM | 48 µM | 0.89 µM | 0.6 µM | 5.3 µM | 4.5 µM | – | – |
| [C20diacid-Trx-γGlu-2xAdo]PYY3-36 | – | – | – | – | – | – | – | – | [C20diacid-Trx-LgGly-2xAdo]PYY3-34, major | – |
| [K^ε30(C18diacid-γGlu-2xAdo)]PYY3-36 | – | – | – | – | – | – | – | – | PYY4-36, minor; also recorded: PYY6-36, minor | – |
| human serum albumin (HSA), fatty-acid free | 0.35 µM | 0.098 µM | 23 µM | 44 µM | 0.93 µM | 0.58 µM | 4.7 µM | 4.2 µM | – | – |
| semaglutide | – | – | – | – | – | – | – | – | – | half-life in the minipig model [6]: approximately 46 hours |
| [(C18diacid-γGlu-2xAdo)]PYY3-36 | – | – | – | – | – | – | – | – | PYY3-34; also recorded: PYY3-35 | – |
